Assay results reported in the supplement of paper PMC9876800.

Tested on: peptide library, one residue held at a place counted from the S/T acceptor
Assay: relative phosphorylation of the sub-library (ratio to the mean residue at this position); higher = residue favoured
Conditions: human
Summary of the method: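 Purified recombinant kinases (human or orthologue constructs) were incubated in 384-well plates with biotinylated degenerate peptide sub-libraries, each fixing one residue at one position around a central Ser/Thr. Peptides were at 50 μM, with 50 μM ATP spiked with γ-32P-ATP, for 90 min under kinase-specific conditions. Spots on streptavidin membranes were phosphorimaged and quantified by densitometry. Relative sub-library phosphorylation is a ratio to the mean residue at that position.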

Sequence of MAPKAPK2, construct: Full length (P49137 whole entry, looked up): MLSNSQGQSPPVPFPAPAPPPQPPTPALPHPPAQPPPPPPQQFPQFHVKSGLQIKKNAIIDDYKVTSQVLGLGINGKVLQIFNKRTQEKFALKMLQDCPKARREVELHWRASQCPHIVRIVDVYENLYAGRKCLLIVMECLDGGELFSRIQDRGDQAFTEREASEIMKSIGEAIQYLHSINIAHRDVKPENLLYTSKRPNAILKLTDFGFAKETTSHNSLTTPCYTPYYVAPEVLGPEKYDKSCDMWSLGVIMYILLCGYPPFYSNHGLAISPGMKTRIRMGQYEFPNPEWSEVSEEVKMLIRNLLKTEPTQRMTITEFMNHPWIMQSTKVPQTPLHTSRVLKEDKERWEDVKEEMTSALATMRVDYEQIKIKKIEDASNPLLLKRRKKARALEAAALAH
Sequence of HIPK3, construct: aa161-562 (Q9H422 161-562, looked up): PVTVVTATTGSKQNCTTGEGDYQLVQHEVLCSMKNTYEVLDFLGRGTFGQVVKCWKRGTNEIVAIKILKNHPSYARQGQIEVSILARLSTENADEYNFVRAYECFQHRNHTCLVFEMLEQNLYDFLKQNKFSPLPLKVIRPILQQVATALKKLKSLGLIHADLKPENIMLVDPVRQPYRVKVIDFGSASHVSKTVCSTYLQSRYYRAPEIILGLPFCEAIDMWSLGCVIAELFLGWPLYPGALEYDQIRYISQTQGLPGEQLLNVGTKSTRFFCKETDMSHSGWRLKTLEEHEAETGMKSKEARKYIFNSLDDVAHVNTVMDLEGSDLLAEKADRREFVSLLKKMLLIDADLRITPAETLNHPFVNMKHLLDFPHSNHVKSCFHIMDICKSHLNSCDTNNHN
Sequence of CAMKK1, construct: aa124-411 (Q8N5S9 124-411, looked up): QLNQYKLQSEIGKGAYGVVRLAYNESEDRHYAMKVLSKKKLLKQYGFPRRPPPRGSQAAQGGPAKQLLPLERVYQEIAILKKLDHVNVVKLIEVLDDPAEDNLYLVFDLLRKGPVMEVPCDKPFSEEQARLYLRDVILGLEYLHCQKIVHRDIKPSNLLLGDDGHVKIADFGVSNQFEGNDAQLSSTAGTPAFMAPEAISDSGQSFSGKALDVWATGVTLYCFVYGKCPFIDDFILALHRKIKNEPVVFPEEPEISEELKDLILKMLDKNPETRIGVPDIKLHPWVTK

HIPK3, construct: aa161-562 (from UniProt Q9H422)
relative phosphorylation
Conditions	at +1	at +2	at +3	at +4	at -1	at -2	at -3	at -4	at -5
A fixed	0.905	1.05	1.03	0.883	1.43	2.27	1.26	1.07	0.866
D fixed	0.116	0.665	0.422	0.718	0.435	0.171	0.37	0.534	0.617
E fixed	0.135	0.371	0.338	0.569	0.46	0.158	0.375	0.63	0.608
F fixed	0.541	1.27	0.965	1.07	0.843	0.617	0.713	1.33	1.32
G fixed	0.8	1.07	0.954	1.02	1.07	0.734	1.06	0.962	0.863
H fixed	0.422	1.3	0.962	1.05	0.765	0.465	0.687	0.859	1.03
I fixed	0.656	0.842	1.26	1.17	1.07	1.24	0.682	1.05	0.913
K fixed	0.324	1.33	0.598	1.1	1.12	0.745	0.858	1.01	1.1
L fixed	0.553	1.02	1.05	0.844	0.932	0.757	0.586	0.842	1.15
M fixed	0.706	1.34	1.2	1.05	1.17	0.835	0.752	1.09	0.951
N fixed	0.21	0.801	0.714	0.894	0.585	0.528	0.481	0.545	0.771
P fixed	8.32	0.967	2.43	1.1	1.52	2.41	0.72	1.04	1.17
Q fixed	0.273	0.703	0.762	1.01	0.907	0.626	0.679	0.799	0.984
R fixed	1.5	1.52	1.12	1.36	2.1	3.19	6.13	2.47	1.8
V fixed	0.649	0.847	1.22	0.951	0.929	1.2	0.614	0.918	0.812
W fixed	0.535	1	0.97	1.16	0.76	0.568	0.553	0.896	0.789
Y fixed	0.351	0.895	0.998	1.05	0.913	0.492	0.482	0.956	1.25
pThr fixed	0.236	0.362	0.387	0.458	0.427	0.737	0.512	0.745	0.925
pTyr fixed	0.283	0.331	0.529	0.601	0.585	0.296	0.624	0.7	0.939

MAPKAPK2, construct: Full length (from UniProt P49137)
relative phosphorylation
Conditions	at +1	at +2	at +3	at +4	at -1	at -2	at -3	at -4	at -5
A fixed	0.699	0.907	0.885	0.974	0.808	1.19	0.604	1.22	0.754
D fixed	0.716	1.92	2.48	1.79	1.12	0.349	0.262	0.669	0.268
E fixed	1.27	1.5	2.42	1.7	0.802	0.749	0.302	1.17	0.22
F fixed	0.729	0.59	0.436	0.561	0.69	0.568	0.212	0.659	1.39
G fixed	0.752	1.47	1.58	1.39	0.733	1.14	0.445	0.999	0.366
H fixed	1.52	1.18	1.1	1.01	1.38	0.778	1.08	1.07	0.67
I fixed	0.928	0.688	0.313	0.575	0.664	0.438	0.111	0.696	1.28
K fixed	0.861	0.655	0.784	0.987	1.2	0.693	1.91	1.75	0.51
L fixed	0.728	0.594	0.432	0.579	0.949	1.04	0.171	0.954	1.65
M fixed	1.27	0.616	0.43	0.598	0.994	1.67	0.275	1.23	1.14
N fixed	1.43	1.4	1.07	1.23	1.49	0.846	0.645	0.843	0.345
P fixed	0.206	1.48	1.75	1.84	1.69	0.655	0.889	0.805	1.42
Q fixed	1.47	1.04	1.17	1.07	1.31	3.73	1.03	1.33	0.941
R fixed	1.36	0.726	0.631	0.755	0.778	1.37	7.97	1.61	1.59
V fixed	1.14	0.885	0.501	0.739	0.87	0.615	0.154	0.725	1.1
W fixed	0.801	0.642	0.5	0.646	0.582	0.586	0.636	0.661	2.38
Y fixed	1.12	0.708	0.521	0.564	0.935	0.577	0.296	0.599	0.983
pThr fixed	1.61	1.04	1.11	1.83	0.519	0.372	0.258	0.504	0.365
pTyr fixed	5.15	2.06	1.63	1.61	1.04	0.397	0.218	0.557	0.646

CAMKK1, construct: aa124-411 (from UniProt Q8N5S9)
relative phosphorylation
Conditions	at +1	at +2	at +3	at +4	at -1	at -2	at -3	at -4	at -5
A fixed	0.901	0.973	0.903	0.897	1.05	0.46	1.22	1.1	1.33
D fixed	0.614	0.968	0.958	1.06	1.05	0.445	0.426	1.26	1.18
E fixed	0.644	0.723	0.891	1.05	1.31	0.348	0.461	1.18	1.06
F fixed	0.858	0.802	0.751	0.774	0.629	1.59	1.36	1.02	0.853
G fixed	0.83	0.897	1.14	1.2	0.7	0.458	0.757	1.18	1.32
H fixed	1.31	1.44	1.24	1.12	1.06	0.949	1.12	1.06	1.05
I fixed	1.06	0.725	0.597	0.612	0.645	0.756	1.18	0.675	0.687
K fixed	0.907	0.997	1.27	1.18	1.05	0.463	0.443	0.806	1.18
L fixed	1.12	0.703	0.657	0.76	1.14	2.71	1.29	0.811	0.605
M fixed	1.37	0.901	0.797	0.845	1.27	2.52	2.16	0.82	0.901
N fixed	1.21	1.11	1.2	1.25	1.21	0.811	0.832	1.03	1.04
P fixed	0.157	0.927	1.2	1.29	0.192	0.229	1.05	0.96	1.21
Q fixed	1.33	1.08	1.15	1.14	1.51	0.696	0.872	0.955	0.863
R fixed	1.31	1.57	1.49	1.23	1.75	0.633	0.583	0.791	1.13
V fixed	1.06	0.865	0.702	0.628	0.696	0.594	1.04	0.83	0.786
W fixed	1.01	0.968	0.975	1.13	0.718	0.668	1.03	1.59	0.906
Y fixed	1.31	1.36	1.08	0.848	1.02	2.67	1.18	0.926	0.903
pThr fixed	0.793	0.982	0.885	0.852	0.508	0.624	0.842	0.969	0.9
pTyr fixed	0.907	0.947	1.01	0.925	1.28	0.668	0.726	0.838	0.979
